The text below walks through data of patent US20230227557A1 (PROMAB BIOTECHNOLOGIES, published 2023).

In the assay the target is T1, PD-L1 on PD-L1-positive cancer cells and tissues (human, UniProt Q9NZQ7 19-290).
T1 construct: whole, on cells; also called PD-L1 tumor antigen; CD274
Description: flow cytometry on cancer cell lines.

T1 sequence (Q9NZQ7 19-290): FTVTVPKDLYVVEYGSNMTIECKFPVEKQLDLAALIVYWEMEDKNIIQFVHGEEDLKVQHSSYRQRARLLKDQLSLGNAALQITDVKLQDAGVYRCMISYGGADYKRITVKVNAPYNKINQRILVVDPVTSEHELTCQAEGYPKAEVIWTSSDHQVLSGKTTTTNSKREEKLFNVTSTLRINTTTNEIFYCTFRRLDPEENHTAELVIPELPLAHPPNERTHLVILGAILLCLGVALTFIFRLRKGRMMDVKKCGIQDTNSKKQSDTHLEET

B1: mouse monoclonal anti-human PD-L1 antibody (hybridoma clone 7D2A10) (antibody, V domains shown)
VH: QIQLVQSGPELKNPGETVKISCKASGYTFTNYGMNWVKQAPGKGLKWMGWINTHTGEPTYADDFKGRFAFSSETSASSAYLQINNLKNDDMATYFCAKGTHREEIPAWFAYWGQGTLVTVSA
VL: DVLMTQTPLSLPVSLGDQASISCRSSQSIVHSNGNTYLEWYLQKPGQSPELLIYKVSNLFSGVPDRFSGSGSGTDFTLKISRVEAEDLGVYYCFQGSHVPPTFGAGTKLELKR
notes: also called Promab anti-PD-L1; PD-L1 monoclonal antibody
Consider B1, for which the binding result is on record as “binds”.
